T1: rhesus monkey iRhom1 (Macaca mulatta, UniProt F6ZPC8)
T1 construct: T7-tagged version of rhesus monkey iRhom1 full length wild type; expressed in transfected cells; host or cells: immortalized iRhom1/2-/- DKO mouse embryonic fibroblasts, pMSCV retroviral infection
T1 sequence (F6ZPC8 1-833): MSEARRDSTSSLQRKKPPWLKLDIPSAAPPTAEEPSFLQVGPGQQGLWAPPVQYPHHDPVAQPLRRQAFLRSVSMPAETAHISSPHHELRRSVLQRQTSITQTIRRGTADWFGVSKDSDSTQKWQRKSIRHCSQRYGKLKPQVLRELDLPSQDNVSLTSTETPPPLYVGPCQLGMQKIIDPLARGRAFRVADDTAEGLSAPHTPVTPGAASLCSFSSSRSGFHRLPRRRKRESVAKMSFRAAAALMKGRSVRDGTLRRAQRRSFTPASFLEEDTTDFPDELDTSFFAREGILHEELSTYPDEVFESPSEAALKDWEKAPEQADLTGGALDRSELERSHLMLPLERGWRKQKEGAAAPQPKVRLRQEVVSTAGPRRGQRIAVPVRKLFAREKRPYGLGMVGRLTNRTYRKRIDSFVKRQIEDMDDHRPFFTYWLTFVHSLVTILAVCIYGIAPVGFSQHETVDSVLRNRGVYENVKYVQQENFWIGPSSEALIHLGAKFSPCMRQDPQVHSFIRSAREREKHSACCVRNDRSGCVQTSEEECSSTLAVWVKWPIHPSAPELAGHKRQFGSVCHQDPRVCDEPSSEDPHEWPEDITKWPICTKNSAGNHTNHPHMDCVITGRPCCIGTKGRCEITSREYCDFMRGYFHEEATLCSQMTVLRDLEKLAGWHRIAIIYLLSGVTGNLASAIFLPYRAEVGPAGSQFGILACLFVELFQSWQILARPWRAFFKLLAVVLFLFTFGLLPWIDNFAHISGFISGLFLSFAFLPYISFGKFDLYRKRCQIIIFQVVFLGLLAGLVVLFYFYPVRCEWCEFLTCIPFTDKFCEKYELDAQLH


Molecular target: T1, rhesus monkey iRhom1
Experiment: FACS binding on MEF-DKO-Rhesus-iR1-FL-WT-T7 cells
Settings: antibody at 3 μg/ml
Excerpt: Next, iRhom1/2−/− DKO MEFs stably expressing a tagged form of rhesus monkey, cynomolgus monkey, dog or rabbit iRhom2 were generated in order to determine cross-reactivity of the antibodies of the invention with the respective orthologue of iRhom2. iRhom1/2−/− DKO MEFs stably expressing a tagged form of rhesus monkey, cynomolgus monkey, dog or rabbit iRhom1 were generated to confirm specificity for iRhom2 versus iRhom1 of these species.
In brief, on day 1, Phoenix-ECO cells (American Type Culture Collection, USA) were seeded on 6-well tissue culture plates (Greiner, Germany) in standard growth medium at 8×10^5 cells per well and kept overnight at 37° C., 5% CO2. On day 2, the medium was replaced by fresh medium supplemented with chloroquine (Sigma-Aldrich, USA) at a final concentration of 25 μM. Applying the calcium phosphate method, cells were transfected with 2 μg/ml of pMSCV (Clontech, USA) empty vector, pMSCV-rhesus-iR2-FL-WT-T7 encoding rhesus monkey iRhom2 full length wild type C-terminally tagged with 3 consecutive copies of the T7 epitope, pMSCV-cyno-iR2-FL-WT-T7 encoding cynomolgus monkey iRhom2 full length wild type C-terminally tagged with 3 consecutive copies of the T7 epitope, pMSCV-dog-iR2-FL-WT-T7 encoding dog iRhom2 full length wild type C-terminally tagged with 3 consecutive copies of the T7 epitope or pMSCV-rabbit-iR2-FL-WT-T7 encoding rabbit iRhom2 full length wild type C-terminally tagged with 3 consecutive copies of the T7 epitope, respectively, and were kept at 37° C., 5% CO2. After 7 hours, the transfections were stopped by replacing cell supernatants with standard growth medium lacking chloroquine, and cells were incubated at 37° C., 5% CO2 to allow virus production overnight. In parallel, immortalized iRhom1/2−/− DKO MEFs as target cells for retroviral infection were seeded on 6-well tissue culture plates (Greiner, Germany) in standard growth medium at 1×10^5 cells per well and were also kept overnight at 37° C., 5% CO2. On day 3, the supernatants of Phoenix-ECO cells releasing pMSCV, pMSCV-rhesus-iR2-FL-WT-T7, pMSCV-cyno-iR2-FL-WT-T7, pMSCV-dog-iR2-FL-WT-T7 or pMSCV-rabbit-iR2-FL-WT-T7 ecotrophic virus, respectively were collected, filtered with 0.45 μm CA filters, and supplemented with 4 μg/ml of polybrene (Sigma-Aldrich, USA). Upon removal of medium from the immortalized iRhom1/2−/− DKO MEFs, the virus containing supernatants were added to the target cells for 4 hours at 37° C., 5% CO2 for first infection. Simultaneously, Phoenix-ECO cells were re-incubated with fresh medium, which, after another 4 hours, was filtered and used for the second infection of the respective target cell populations, again in the presence of 4 μg/ml of polybrene. Likewise, a third, but overnight infection cycle was performed. On day 4, virus containing cell supernatants were replaced by fresh standard growth medium. From day 5 onwards, cells were grown in the presence of 2 mg/ml of geneticin (G418, Thermo Fisher Scientific, USA) for the selection of immortalized MEF-DKO-EV control cells stably infected with pMSCV empty vector, pMSCV-rhesus-iR2-FL-WT-T7 cells stably expressing rhesus monkey iRhom2 full length wild type C-terminally tagged with 3 consecutive copies of the T7 epitope, pMSCV-cyno-iR2-FL-WT-T7 cells stably expressing cynomolgus monkey iRhom2 full length wild type C-terminally tagged with 3 consecutive copies of the T7 epitope, pMSCV-dog-iR2-FL-WT-T7 cells stably expressing dog iRhom2 full length wild type C-terminally tagged with 3 consecutive copies of the T7 epitope or pMSCV-rabbit-iR2-FL-WT-T7 cells stably expressing rabbit iRhom2 full length wild type C-terminally tagged with 3 consecutive copies of the T7 epitope, respectively. Upon propagation, cells were stocked for future usage. In parallel, iRhom1/2−/− DKO MEFs stably expressing a tagged form of rhesus monkey, cynomolgus monkey, dog or rabbit iRhom1 were generated in an analogous manner. […]

| binding to rhesus monkey iRhom1 on MEF-DKO-Rhesus-iR1-FL-WT-T7 cells | Molecule |
| --- | --- |
| do not recognize rhesus monkey iRhom1 | 23-B-04: humanized antibody binding human iRhom2; HCVD SEQ ID NO 25, LCVD SEQ ID NO 29 (antibody, V domains shown, antibody sequences) VH: QVTLRESGPALVKPTQTLTLTCTFSGFSLSTFGMGVGWIRQPPGKALEWLAHIWWDDEKYYNSALKSRLTISKDTSKNQVVLTITNMDPVDTATYYCARISNYGSNYWYFNVWGQGTLVTVSS VL: AIQLTQSPSSLSASVGDRVTITCRASSSVSYMYWYQQKPGKAPKVLIYDTSNLASGVPSRFSGSGSGTDYTLTISSLQPEDFATYYCQQWNAYPLTFGQGTKLEIK |
| do not recognize rhesus monkey iRhom1 | 42-B-04: humanized antibody binding human iRhom2; HCVD SEQ ID NO 41, LCVD SEQ ID NO 45 (antibody, V domains shown, antibody sequences) VH: QVTLRESGPALVKPTQTLTLTCTFSGFSLSTFGRGVGWIRQPPGKALEWLAHIWWDDEKYYNSALKSRLTISKDTSKNQVVLTITNMDPVDTATYYCARIQNYGSNYWYFDVWGQGTLVTVSS VL: AIQLTQSPSSLSASVGDRVTITCRASSRISYMFWYQQKPGKAPKVLIYDTSNLASGVPSRFSGSGSGTDYTLTISSLQPEDFATYYCQQWNAYPLTFGQGTKLEIK |
| do not recognize rhesus monkey iRhom1 | 42-B-02: humanized antibody binding human iRhom2; HCVD SEQ ID NO 33, LCVD SEQ ID NO 37 (antibody, V domains shown, antibody sequences) VH: QVTLRESGPALVKPTQTLTLTCTFSGFSLSTFGRGVGWIRQPPGKALEWLAHIWWDDEKYYNSALKSRLTISKDTSKNQVVLTITNMDPVDTATYYCARIQNYGSNYWYFDVWGQGTLVTVSS VL: AIQLTQSPSSLSASVGDRVTITCRASSRISYMFWYQQKPGKAPKVLIYDTSNLASGVPSRFSGSGSGTDYTLTISSLQPEDFATYYCQQWNSYPLTFGQGTKLEIK |
| no significant binding | 16-B-03: humanized antibody binding human iRhom2; HCVD SEQ ID NO 1, LCVD SEQ ID NO 5 (antibody, V domains shown, antibody sequences) VH: QVTLRESGPALVKPTQTLTLTCTFSGFSLSTFALGVGWIRQPPGKALEWLAHIWWDDDKYYNPALKSRLTISKDTSKNQVVLTITNMDPVDTATYYCARITTYYYGMDYWGQGTLVTVSS VL: EIVMTQSPDFQSVTPKEKVTITCRASQSIGNHLHWYQQKPDASPKLLIKYASQSISGVPSRFSGSGSGTDFTLTINSLEAEDAATYFCQQSYQWPLTFGQGTKLEIK |
| do not recognize rhesus monkey iRhom1 | 16-B-07: humanized antibody binding human iRhom2; HCVD SEQ ID NO 17, LCVD SEQ ID NO 21 (antibody, V domains shown, antibody sequences) VH: QVTLRESGPALVKPTQTLTLTCTFSGFSLSTFALGVGWIRQPPGKALEWLAHIWWDEDKYYNPALKSRLTISKDTSKNQVVLTITNMDPVDTATYYCARITTYYYGMDYWGQGTLVTVSS VL: EIVMTQSPDFQSVTPKEKVTITCRASQSIGNHLHWYQQKPDASPKLLIKYASQSISGVPSRFSGSGSGTDFTLTINSLEAEDAATYFCQQSYQWPLTFGQGTKLEIK |
| do not recognize rhesus monkey iRhom1 | 16-B-05: humanized antibody binding human iRhom2; HCVD SEQ ID NO 9, LCVD SEQ ID NO 13 (antibody, V domains shown, antibody sequences) VH: QVTLRESGPALVKPTQTLTLTCTFSGFSLSTFALGVGWIRQPPGKALEWLAHIWWDEDKYYNPALKSRLTISKDTSKNQVVLTITNMDPVDTATYYCARITTYYYGMDYWGQGTLVTVSS VL: EIVMTQSPDFQSVTPKEKVTITCRASQSIGNHLHWYQQKPDASPKLLIKYASQSISGVPSRFSGSGSGTDFTLTINSLEAEDAATYFCQQSYNWPLTFGQGTKLEIK |

Source: US12404345B2, “Humanized antibodies against iRHOM2” (SCIRHOM GMBH, priority 2021, dated 2025)
